Measurements from publication PMC10107573 (Nature Communications, 2023).

Target: recombinant biotinylated SARS-CoV-2 spike RBD, wild type (SARS-CoV-2, UniProt P0DTC2, biotinylated)
Assay: BLI
Conditions: both partners purified

B1: monoclonal antibody 10-5B (human IgG1) (antibody, V domains shown)
VH: EVQLVESGGGLIQPGGSLRLSCAVSGFTVSRMSWVRQAPGKGLECVSVIYTGGNTDYADSVKGRFTISRDNSKNTLYLQMNSLRAEDTALYYCVRGSGGIHDAFDIWGQGTMVTVSS
VL: DIQMTQSPSSVSASVGDRVTITCRASQGISTWLAWYQQKPGKAPKVLINAASGLQSGVPSRFSGSGSGTDFTLTISSLQPEDFATYYCQQAHSFPPTFGPGTKLEIK
  binding result: binds

B2: monoclonal antibody 1-1D (human IgG1) (antibody, V domains shown)
VH: EVQLVESGGGLIQPGGSLRLSCAASGFTVSSNYMSWVRQAPGKGLEWVSVIYSGGSTYFADSVKGRFTISRDNSKNTLYLQMNSLRAEDTAVYYCARGELGYSYGMDVWGQGTTVTVSS
VL: QSVLTQPPSVSAAPGQKVTISCSGSSSNIGDNYVSWYQLLPGTAPKLLIYDNNQRPSGIPDRFSGSKSGTSATLGITGLQTGDEADYYCGTWDSSLSTGVFGGGTRLTVL
  binding result: binds
